# Publication doi:10.1101/580043
# pKd: −log10 of the molar value.
# Legend:
# [1] = molecular target: Recombinant full-length MBP-tagged DEPS-1 (C. elegans) (UniProt Q9N303); test: MST
# [2] = molecular target: MBP-tagged PRG-1 PIWI domain (C. elegans); test: MST
# Chain of Recombinant full-length MBP-tagged DEPS-1 (C. elegans) (Q9N303 whole entry, the tested form may be a part): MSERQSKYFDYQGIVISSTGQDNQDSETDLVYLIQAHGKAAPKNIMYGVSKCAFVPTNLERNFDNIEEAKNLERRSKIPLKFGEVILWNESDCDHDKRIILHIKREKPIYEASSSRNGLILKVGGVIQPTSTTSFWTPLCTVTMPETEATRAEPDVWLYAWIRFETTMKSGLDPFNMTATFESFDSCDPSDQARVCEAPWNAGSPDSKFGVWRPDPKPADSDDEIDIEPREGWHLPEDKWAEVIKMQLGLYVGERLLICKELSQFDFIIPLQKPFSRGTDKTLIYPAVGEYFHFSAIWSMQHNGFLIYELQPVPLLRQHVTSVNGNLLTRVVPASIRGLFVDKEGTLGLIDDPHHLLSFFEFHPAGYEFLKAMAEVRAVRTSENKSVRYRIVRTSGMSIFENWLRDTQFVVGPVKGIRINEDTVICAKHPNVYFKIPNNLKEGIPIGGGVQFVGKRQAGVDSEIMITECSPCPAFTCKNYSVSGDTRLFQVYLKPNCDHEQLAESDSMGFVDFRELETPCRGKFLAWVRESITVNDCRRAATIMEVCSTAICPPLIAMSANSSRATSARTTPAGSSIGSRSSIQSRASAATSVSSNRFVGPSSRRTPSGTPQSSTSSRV
# Chain of MBP-tagged DEPS-1 N-terminal fragment (DEPS-1^frag1) (domain or fragment) (Q9N303 whole entry, the tested form may be a part): as above
Substance,pKd [1],pKd [2]
MBP-tagged PRG-1 PIWI domain (domain or fragment),6.46,
MBP-tagged DEPS-1 N-terminal fragment (DEPS-1^frag1) (domain or fragment),,6.82
